In US7026443 one finds relative binding ratio (IC50 of standard peptide / IC50 of test peptide) and binding affinity ratio (IC50 of standard peptide / IC50 of test peptide) (ratio relative to standard peptide) data, which are given here for three molecules.

Test [1] deals with HLA-A*1101 (human). Nature of the test: inhibition of binding of a 125I-labelled standard peptide to purified HLA-A*1101, with gel filtration separation. On the technique in general: SEC sorts molecules by how far they enter the pores of the column.
For test [2], the target named is HLA-A*1101 (human). Nature of the test: competition of unlabeled peptide with 125I-labeled standard probe peptide for purified HLA-A*1101, gel filtration.
Test [3] concerns the target HLA-A*1101 (human). The test is described as follows: competition against a 125I-labelled standard probe peptide for purified HLA-A*1101, bound and free separated by gel filtration; value relative to the standard peptide.

Turning to YNIVTFCCK (modifications not checked) [HPV16 E7 position 52 9-mer peptide … (SEQ ID NO: 40241)], in test [1], the relative binding ratio (IC50 of standard peptide / IC50 of test peptide) is 0.0022.

In the case of TMLCMCCK (modifications not checked) [HPV18 E7 60-67 peptide TMLCMCCK (SEQ ID NO: 41224)], in test [2], the binding affinity ratio (IC50 of standard peptide / IC50 of test peptide) (ratio relative to standard peptide) was 0.024.

Regarding QVLHVLKRK (modifications not checked) [HPV18 E1 peptide … (position 80, 9 amino acids)], the relative binding ratio (IC50 of standard peptide / IC50 of test peptide) in test [3] is 0.002.
